Data from article PMC4482781 (Nature neuroscience, 2015).

Tests used:
[1] = system: AD–derived endothelial monolayers; test: Aβ transcytosis across AD–derived endothelial monolayers; assay type: in vitro ADME, human; conditions: Aβ40 (1 nM) per Fig. 8b
[2] = system: primary human brain endothelial cells (BEC); test: Colocalization of Aβ–LRP1 complex with PICALM by immunostaining in BEC; assay type: cell-based; conditions: 250 nM, 30 s

Substance | Aβ transport improved by co–transfer of PICALM and LRP1 mini–gene [1] [%] | Aβ transcytosis improved by adenoviral–mediated transfer of PICALM ([1]; compared to GFP control) [%] | colocalized Aβ–LRP1/PICALM puncta [2]
Aβ: amyloid β–peptide, isoform not named at the place; Aβ40 (1 nM) by legend of Fig. 8 | 89 | 63 | 
FAM–Aβ42: 6-carboxyfluorescein-labeled Aβ42, Anaspec catalog # 23526 |  |  | rapid increase
